Test results: patent US20230060388A1 (SHANGHAI HENLIUS BIOTECH, published 2023)
Where two headings read alike, the source gives them in different places.

Assays:
[1] = target: T1, recombinant ECD of human FcγRIIB (human, UniProt P31994 43-217); assay: Octet (ForteBio), receptor ECD loaded on the sensor, antibody at 5 concentrations (not given) [h-FcγRIIB binding]
T1 construct: extracellular domain
T1 sequence (looked up): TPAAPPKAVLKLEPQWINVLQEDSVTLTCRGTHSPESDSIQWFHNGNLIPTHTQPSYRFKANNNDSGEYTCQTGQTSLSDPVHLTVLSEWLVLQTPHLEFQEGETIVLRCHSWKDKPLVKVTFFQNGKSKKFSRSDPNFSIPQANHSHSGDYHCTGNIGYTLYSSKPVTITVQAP
Source text: (§1) FIG. 12 depicts binding of 2A3-LT-Fc wild type (wt) and Fc mutations (DLE and VLPLL) to human FcγRIIIA, human FcγRIIB and mouse FcγRIV determined using Octet binding assay. Sensors were loaded with recombinant proteins of ECDs of FcγRIIIA, human FcγRIIB and mouse FcγRIV, association and dissociation of 2A3-LT-Fc wt, DLE or VLPLL mutants at 5 different concentrations were detected using ForteBio. Y axis represents association, dissociation & Rmax. X axis represents time in second. Both DLE and VLPLL mutants had enhanced binding affinity to human FcγRIIIA compared to that of wild type, DLE mutant also had enhanced binding affinity to human FcγRIIB, however VLPLL mutant reduced binding affinity to human FcγRIIB All versions had similar affinity to mouse FcγRIV.

[2] = target: T2, recombinant ECD of mouse FcγRIV (mouse, UniProt A0A0B4J1G0 21-203); assay: Octet (ForteBio), receptor ECD loaded on the sensor, antibody at 5 concentrations (not given) [m- FcγRIV binding]
T2 sequence: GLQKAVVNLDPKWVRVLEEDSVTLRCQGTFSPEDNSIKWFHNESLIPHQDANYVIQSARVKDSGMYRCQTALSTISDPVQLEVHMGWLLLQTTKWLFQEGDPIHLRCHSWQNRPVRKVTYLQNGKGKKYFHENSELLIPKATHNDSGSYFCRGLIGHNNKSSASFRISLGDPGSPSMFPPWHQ
Source text: as §1

[3] = target: T3, human TIGIT expressed on cells (stably transfected Jurkat cells) (human, UniProt Q495A1 22-244); assay: cell-based or functional assay
T3 sequence: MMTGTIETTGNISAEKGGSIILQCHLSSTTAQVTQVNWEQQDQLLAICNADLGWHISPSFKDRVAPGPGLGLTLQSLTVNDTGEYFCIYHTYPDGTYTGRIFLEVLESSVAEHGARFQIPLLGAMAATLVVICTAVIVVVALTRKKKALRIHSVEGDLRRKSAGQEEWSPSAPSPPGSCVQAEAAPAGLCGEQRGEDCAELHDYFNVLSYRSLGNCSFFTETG

[4] = target: human FcγRIIIA expressed on transfected Jurkat cells (human, UniProt P08637 17-254); assay: cell-based or functional assay
human FcγRIIIA expressed on transfected Jurkat cells, sequence (P08637 17-254): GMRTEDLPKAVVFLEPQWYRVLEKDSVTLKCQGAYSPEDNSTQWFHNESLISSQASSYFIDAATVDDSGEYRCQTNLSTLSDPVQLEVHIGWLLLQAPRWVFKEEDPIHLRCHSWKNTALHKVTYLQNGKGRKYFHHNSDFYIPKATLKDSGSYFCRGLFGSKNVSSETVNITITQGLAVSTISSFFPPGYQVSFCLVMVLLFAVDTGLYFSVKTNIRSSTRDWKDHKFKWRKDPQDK

[5] = target: T3, human TIGIT expressed on cells (stably …); assay: TIGIT WCB: whole cell binding, flow cytometry, h-TIGIT Jurkat cells; mean
Description: Affinity to TIGIT was further examined in whole cell binding assay using human TIGIT transfected Jurkat cells. Antibodies were incubated with h-TIGIT transfected Jurkat cells, and binding of antibodies to h-TIGIT was determined using a secondary anti-human-IgG Fc antibody conjugated with AlexaFluor488, which was detected by flow cytometry.

[6] = target: T3, human TIGIT expressed on cells (stably …); assay: cell-based or functional assay; remark: listed apart in the source
[7] = target: T3, human TIGIT expressed on cells (stably …); assay: flow cytometry (whole cell binding) on h-TIGIT transfected Jurkat cells; table under the graph, Average (n=3), SD 71.12
[8] = target: T3, human TIGIT expressed on cells (stably …); assay: flow cytometry on h-TIGIT transfected Jurkat cells, anti-human IgG Fc Alexa Fluor 488
Source text: FIGS. 3A and 3B depict whole cell binding of humanized 1C12 and 1G1 clones to human TIGIT determined by flowcytometry assays. 1C12-chimeric is an antibody with Llama VHH sequence of 1C12 clone and human IgG1 CH2 and CH3 domains, 1C12 (F-EREF), 1C12 (F-EREW) and 1C12 (F-GLEW) are humanized versions of 1C12 clone with difference of mutations in Framework 2. 1G1-chimeric is an antibody with Llama VHH sequence of 1G1 clone and human IgG1 CH2 and CH3 domains. 1G1 (F-G-ERES), 1G1 (F-A-ERES), 1G1 (F-A-EREW) and 1G1 (F-A-GLEW) are four different versions of humanized 1G1 clones with different mutations in framework 2. Y axis is values of Mean Fluorescence Intensity of AlexaFlour 488. X axis is values of antibody concentrations in nanomolar.
The binding affinities of the humanized bivalent antibodies to human TIGIT were determined by whole cell binding to h-TIGIT stably expressed on Jurkat cells. Briefly, antibodies were incubated with h-TIGIT transfected Jurkat cells (0.2×10⁶/well in 100 μl) for 30 min in FACS buffer. The cells were washed once, then incubated with anti-human IgG Fc AlexaFluor488 (1:500). Mean fluorescence intensity was determined by CytoFlex, and binding affinities of antibodies to h-TIGIT were calculated using non-liner regression by GraphPad Prism 8.0 as shown in FIG. 3A.

[9] = target: T3, human TIGIT expressed on cells (stably …); assay: as above; remark: listed apart in the source
Source text: FIGS. 1A-1C depict whole cell binding of representative VHH bivalent antibodies to human TIGIT determined by flowcytometry assays. […] Y axis represents Mean Fluorescence Intensity of AlexaFlour 488. X axis represents antibody concentrations in nanomolar. 2B7, 1G1, 1C12, 3G6, 2B10, 3G7, 3G10, 13H11, and 15A5 are VHH clones of anti-human TIGIT. FIG. 1C is a schematic of the structure of a TIGIT VHH bivalent antibody.
Binding affinities of the bivalent clones to human TIGIT transfected Jurkat cells were confirmed by flowcytometry assays. Jurkat cells stably expressing human TIGIT and NFAT reporter gene were established. Specifically, Jurkat cells were transfected with human TIGIT expression vector by electroporation, and cells stably expressing human TIGIT were selected by 1 μg/ml puromycin during cell culture. Representative antibody clones were incubated at different concentrations with h-TIGIT stably expressing Jurkat cells (0.2×10^6/ml) in 100 μl/well in 96-well plate in FACS buffer (PBS with 1.5% FBS) for 30 min. After washing, Alexaflour 488 conjugated anti-human IgG Fc secondary antibody (Alexa Fluor® 488 AffiniPure Goat Anti-Human IgG, Fcγ fragment specific, Jackson labs, 1:500 dilution) was added and incubated for 30 min. After washing, mean fluorescence intensity was measured using CytoFlex (Beckman Coulter) by gating live cell population. Binding affinity was calculated using GraphPad Prism.

[10] = target: T3, human TIGIT expressed on cells (stably …); assay: flow cytometry (whole cell binding) on h-TIGIT transfected Jurkat cells; table under the graph, Average (n=3), SD 0.37
[11] = target: T3, human TIGIT expressed on cells (stably …); assay: flow cytometry (whole cell binding) on h-TIGIT transfected Jurkat cells; table under the graph, Average (n=3), SD 1.61

B1: 2A3-LT-Fc VLPLL (Fc mutations L235V, F243L, R292P, Y300L, P396L) (Fc fusion)
chain: QVQLVESGGGVVQPGRSLRLSCAASGGSFSSYPMGWFRQAPGKERESVAAISSDLRFTYYADSVKGRFTISRDNSKNTLYLQMNSLRAEDTAVYYCAARTSGVGYYSRAQWYDYWGQGTLVTVSSEPKSCDKTHTCPPCPAPELVGGPSVFLLPPKPKDTLMISRTPEVTCVVVDVSHEDPEVKFNWYVDGVEVHNAKTKPPEEQYNSTLRVVSVLTVLHQDWLNGKEYKCKVSNKALPAPIEKTISKAKGQPREPQVYTLPPSREEMTKNQVSLTCLVKGFYPSDIAVEWESNGQPENNYKTTPLVLDSDGSFFLYSKLTVDKSRWQQGNVFSCSVMHEALHNHYTQKSLSLSPGK
notes: also called VLPLL mutant; VPVLL (as misprinted)
binding result [1]: binds | binding result [2]: binds

B2: 2A3-LT-Fc-DLE (Fc mutations S239D, A330L, I332E) (Fc fusion)
chain: QVQLVESGGGVVQPGRSLRLSCAASGGSFSSYPMGWFRQAPGKERESVAAISSDLRFTYYADSVKGRFTISRDNSKNTLYLQMNSLRAEDTAVYYCAARTSGVGYYSRAQWYDYWGQGTLVTVSSEPKSCDKTHTCPPCPAPELLGGPDVFLFPPKPKDTLMISRTPEVTCVVVDVSHEDPEVKFNWYVDGVEVHNAKTKPREEQYNSTYRVVSVLTVLHQDWLNGKEYKCKVSNKALPLPEEKTISKAKGQPREPQVYTLPPSREEMTKNQVSLTCLVKGFYPSDIAVEWESNGQPENNYKTTPPVLDSDGSFFLYSKLTVDKSRWQQGNVFSCSVMHEALHNHYTQKSLSLSPGK
notes: I332E is printed as 1332E; also called DLE mutant
binding result [1]: binds | EC50 (nM), TIGIT blockade NFAT reporter, Average [3]: 0.97 nM | EC50 (nM), TIGIT blockade NFAT reporter, Exp 1 [3]: 0.67 nM | EC50 (nM), TIGIT blockade NFAT reporter, Exp 2 [3]: 0.92 nM | EC50 (nM), TIGIT blockade NFAT reporter, Exp 3 [3]: 1.32 nM | EC50 (nM), FcγRIIIA-mediated NFAT reporter, Average [4]: 0.024 nM | EC50 (nM), FcγRIIIA-mediated NFAT reporter, Exp 1 [4]: 0.027 nM | EC50 (nM), FcγRIIIA-mediated NFAT reporter, Exp 2 [4]: 0.0295 nM | EC50 (nM), FcγRIIIA-mediated NFAT reporter, Exp 3 [4]: 0.018 nM | EC50 (nM), FcγRIIIA-mediated NFAT reporter, Exp 4 [4]: 0.02 nM | binding result [2]: binds

B3: anti-TIGIT x anti-PD1 bispecific antibody, LCC version (bispecific antibody, human IgG4 S228P, kappa)
heavy: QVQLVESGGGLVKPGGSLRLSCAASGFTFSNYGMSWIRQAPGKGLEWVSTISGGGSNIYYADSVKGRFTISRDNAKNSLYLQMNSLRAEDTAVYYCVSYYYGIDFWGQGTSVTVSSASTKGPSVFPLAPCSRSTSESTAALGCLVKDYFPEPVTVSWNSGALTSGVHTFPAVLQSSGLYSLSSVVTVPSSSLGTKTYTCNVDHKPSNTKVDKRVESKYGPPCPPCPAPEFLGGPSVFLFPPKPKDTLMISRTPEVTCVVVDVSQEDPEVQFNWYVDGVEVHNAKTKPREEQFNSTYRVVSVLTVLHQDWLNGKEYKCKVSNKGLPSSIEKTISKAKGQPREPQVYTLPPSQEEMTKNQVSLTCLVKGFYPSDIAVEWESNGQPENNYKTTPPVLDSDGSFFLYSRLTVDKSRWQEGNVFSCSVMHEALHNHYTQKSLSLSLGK
light: DIQMTQSPSSLSASVGDRVTITCKASQDVTTAVAWYQQKPGKAPKLLIYWASTRHTGVPSRFSGSGSGTDFTLTISSLQPEDFATYYCQQHYTIPWTFGGGTKLEIKRTVAAPSVFIFPPSDEQLKSGTASVVCLLNNFYPREAKVQWKVDNALQSGNSQESVTEQDSKDSTYSLSSTLTLSKADYEKHKVYACEVTHQGLSSPVTKSFNRGECGSGGSGGSGGSGQVQLVESGGGVVQPGRSLRLSCAASGGSFSSYPMGWFRQAPGKERESVAAISSDLRFTYYADSVKGRFTISRDNSKNTLYLQMNSLRAEDTAVYYCAARTSGVGYYSRAQWYDYWGQGTLVTVSS
notes: VHH 2A3 fused to the C-terminus of the anti-PD1 light chain; also called aTIGITxaPD1-LCC; aTIGITxaPDI-LCC
EC50 [5]: 192 nM | EC50 (Mean, nM), PD1 + TIGIT Combination Blockade Assay (double blockade) [6]: 0.48 nM | EC50 (Mean, nM), TIGIT Blockade Assay [6]: 10.3 nM | EC50 [7]: 155 nM

B4: 1C12 bivalent VHH antibody (1C12-chimeric) (Fc fusion)
chain: QVQLVESGGGLVQTGDSLRLSCAASSRIFSRYGMGWFRQAPGKEREFVAAISWNGASTTYTDSVKGRFTISRDSAENTTYLQINSLRPEDTAVYYCAADPWGAVKLGTAEYEYWGQGTQVTVSS
notes: Llama VHH of 1C12 with human IgG1 CH2 and CH3; also called chimeric parental clone; not shown: human IgG1 CH2 and CH3 domains
EC50 (read off the curve) [8]: ~0.03 nM | EC50 (read off the curve) [9]: ~0.04 nM

B5: anti-TIGIT x anti-PD1 bispecific antibody, HCN version (bispecific antibody, human IgG4 S228P, kappa)
heavy: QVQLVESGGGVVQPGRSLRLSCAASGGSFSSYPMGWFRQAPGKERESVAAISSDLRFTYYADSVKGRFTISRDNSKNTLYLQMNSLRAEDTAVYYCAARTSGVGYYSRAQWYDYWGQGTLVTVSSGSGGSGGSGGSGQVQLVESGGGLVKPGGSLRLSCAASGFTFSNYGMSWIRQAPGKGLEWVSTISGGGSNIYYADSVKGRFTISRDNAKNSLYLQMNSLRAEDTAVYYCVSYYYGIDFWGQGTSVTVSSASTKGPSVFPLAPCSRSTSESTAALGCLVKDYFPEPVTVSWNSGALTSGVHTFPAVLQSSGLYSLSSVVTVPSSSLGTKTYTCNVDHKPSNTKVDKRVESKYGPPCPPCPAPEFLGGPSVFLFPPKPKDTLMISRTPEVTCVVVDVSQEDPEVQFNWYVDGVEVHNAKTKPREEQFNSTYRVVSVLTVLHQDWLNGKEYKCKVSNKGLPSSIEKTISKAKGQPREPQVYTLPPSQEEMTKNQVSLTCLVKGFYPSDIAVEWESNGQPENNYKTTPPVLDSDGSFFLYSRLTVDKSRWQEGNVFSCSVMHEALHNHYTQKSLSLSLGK
light: DIQMTQSPSSLSASVGDRVTITCKASQDVTTAVAWYQQKPGKAPKLLIYWASTRHTGVPSRFSGSGSGTDFTLTISSLQPEDFATYYCQQHYTIPWTFGGGTKLEIKRTVAAPSVFIFPPSDEQLKSGTASVVCLLNNFYPREAKVQWKVDNALQSGNSQESVTEQDSKDSTYSLSSTLTLSKADYEKHKVYACEVTHQGLSSPVTKSFNRGEC
notes: VHH 2A3 fused to the N-terminus of the anti-PD1 heavy chain; also called aTIGITxaPD1-HCN; BsAb HCN
EC50 [5]: 0.81 nM | EC50 (Mean, nM), PD1 + TIGIT Combination Blockade Assay (double blockade) [6]: 1.15 nM | EC50 (Mean, nM), TIGIT Blockade Assay [6]: 2.7 nM | EC50 [10]: 0.55 nM

B6: anti-TIGIT x anti-PD1 bispecific antibody, HCC version (bispecific antibody, human IgG4 S228P, kappa)
heavy: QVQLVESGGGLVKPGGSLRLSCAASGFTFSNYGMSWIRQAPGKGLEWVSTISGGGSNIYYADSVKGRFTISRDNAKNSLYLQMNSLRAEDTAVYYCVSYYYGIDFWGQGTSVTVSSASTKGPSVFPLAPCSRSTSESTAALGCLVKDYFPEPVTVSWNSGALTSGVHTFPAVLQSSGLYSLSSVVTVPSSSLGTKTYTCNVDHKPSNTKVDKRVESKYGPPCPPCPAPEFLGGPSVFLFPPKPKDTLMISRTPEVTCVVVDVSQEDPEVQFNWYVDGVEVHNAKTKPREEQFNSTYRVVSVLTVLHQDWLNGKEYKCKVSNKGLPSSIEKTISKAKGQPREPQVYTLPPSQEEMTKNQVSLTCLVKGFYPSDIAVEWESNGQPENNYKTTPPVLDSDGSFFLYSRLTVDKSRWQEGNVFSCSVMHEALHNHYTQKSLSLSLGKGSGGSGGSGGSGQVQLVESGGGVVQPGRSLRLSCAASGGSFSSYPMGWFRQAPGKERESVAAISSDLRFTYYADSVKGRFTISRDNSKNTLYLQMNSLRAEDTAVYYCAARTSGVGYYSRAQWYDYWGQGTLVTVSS
light: DIQMTQSPSSLSASVGDRVTITCKASQDVTTAVAWYQQKPGKAPKLLIYWASTRHTGVPSRFSGSGSGTDFTLTISSLQPEDFATYYCQQHYTIPWTFGGGTKLEIKRTVAAPSVFIFPPSDEQLKSGTASVVCLLNNFYPREAKVQWKVDNALQSGNSQESVTEQDSKDSTYSLSSTLTLSKADYEKHKVYACEVTHQGLSSPVTKSFNRGEC
notes: VHH 2A3 fused to the C-terminus of the anti-PD1 heavy chain; also called aTIGITxaPD1-HCC
EC50 [5]: 4.93 nM | EC50 [11]: 4.2 nM | EC50 (Mean, nM), PD1 + TIGIT Combination Blockade Assay (double blockade) [6]: 2.61 nM | EC50 (Mean, nM), TIGIT Blockade Assay [6]: 25.9 nM

B7: 1G1 bivalent VHH antibody (1G1-chimeric) (Fc fusion)
chain: QVQLVESGGGLVQAGDSLRLSCVASGPSFSSYPMGWFRQGPGKERESVAAISSDGRFTYYAASVKGRFTISKDNAKSAAFLQMNSLKPEDTAVYYCAARDSGSGYYSRAQWYDYWGQGTLVTVSS
notes: Llama VHH of 1G1 with human IgG1 CH2 and CH3; also called chimeric parental clone; not shown: human IgG1 CH2 and CH3 domains
EC50 (read off the curve) [8]: ~0.07 nM | EC50 (read off the curve) [9]: ~0.09 nM
